The test concerns the target biotinylated PECAM-1 Y663,pY686 peptide (human). In words: flow cytometry bead-based binding assay. A general note: A flow cytometer gives signals particle by particle.

B1: GST fusion protein containing the SH2 domain of Csk (domain or fragment)
chain: WFHGKITREQAERLLYPPETGLFLVRESTNYPGDYTLCVSCDGKVEHYRIMYHASKLSIDEEVYFENLMQLVEHYTSDADGLCTRLIKPK
The molecule B1 showed a binding relative to the Lyn SH2 domain of 2 fold.

(Values after publication PMC3666314.)
